Results on 18 substances are retold here after publication PMC7195491.

The target in test [1] is DIP-α K10Q S32D, extracellular region (Drosophila melanogaster). Kind of test: AUC; sedimentation equilibrium, 25 °C, 10 mM Bis-Tris pH 6.6, 150 mM NaCl, UV 280 nm, global fit (HeteroAnalysis); dimer to monomers; two runs (n 1, 2) and their average.
The target of test [2] is DIP-α (Drosophila melanogaster). Kind of test: SPR; Biacore T100, CM4 chip; DIPs and DIP mutants immobilised by amine coupling (760-980 RU), Dprs and Dpr mutants as analytes (three-fold dilution series, up to 81 μM, in some cases up to 27 or 9 μM); 25 °C; 10 mM Tris-HCl pH 7.2, 150 mM NaCl, 1 mM EDTA, 1 mg/mL BSA, 0.01% Tween-20; equilibrium fit, 1:1 model; for KDs > 300 μM a lower limit is listed. In general terms: SPR reads the build-up and loss of mass on a sensor chip optically.

Test [3] addresses DIP-β (isoformG), extracellular region (Drosophila melanogaster). Kind of test: SPR; Biacore T100, CM4 chip; DIPs and DIP mutants immobilised by amine coupling, Dprs as analytes; 25 °C; 10 mM Tris-HCl pH 7.2, 150 mM NaCl, 1 mM EDTA, 1 mg/mL BSA, 0.01% Tween-20; duplicate responses fit globally to a 1:1 model; Rmax fixed for KDs > 100 μM, lower limit listed for KDs > 300 μM.
The target in test [4] is DIP-α K10Q G4S {K81Q G74S}, extracellular region (Drosophila melanogaster) (UniProt Q9W4R3). Kind of test: AUC; sedimentation equilibrium, 25 °C, 10 mM Bis-Tris pH 6.6, 150 mM NaCl, detection at 280 nm; global fit (HeteroAnalysis); dimer to monomers; mean of two independent measurements.
Test [5] has as its target DIP-α A11T {A82T}, extracellular region (Drosophila melanogaster) (UniProt Q9W4R3). Kind of test: SPR; Biacore T100, CM4 chip; DIPs and DIP mutants immobilised by amine coupling, Dprs as analytes; 25 °C; 10 mM Tris-HCl pH 7.2, 150 mM NaCl, 1 mM EDTA, 1 mg/mL BSA, 0.01% Tween-20; duplicate responses fit globally to a 1:1 model; Rmax fixed for KDs > 100 μM, lower limit listed for KDs > 300 μM.

Test [6] deals with DIP-α A7K {A78K}, extracellular region (Drosophila melanogaster) (UniProt Q9W4R3). The description is as above.
In test [7] the target is DIP-α G4A {G74A}, extracellular region (Drosophila melanogaster) (UniProt Q9W4R3). Described as above.
The target in test [8] is DIP-α G4L {G74L}, extracellular region (Drosophila melanogaster) (UniProt Q9W4R3). The test is described as above.
For test [9], the target named is DIP-α I16A {I91A}, extracellular region (Drosophila melanogaster) (UniProt Q9W4R3). The description is as above.
In test [10] the target is DIP-α K10Q G4S {K81Q G74S}, extracellular region (Drosophila melanogaster) (UniProt Q9W4R3). The test is described as above.
The target of test [11] is DIP-α K10Q S32D {K81Q S133D}, extracellular region (Drosophila melanogaster) (UniProt Q9W4R3). Described as above.
Test [12] deals with DIP-α K10Q {K81Q}, extracellular region (Drosophila melanogaster) (UniProt Q9W4R3). The description is as above.
Test [13] has as its target DIP-α N19D {N94D}, extracellular region (Drosophila melanogaster) (UniProt Q9W4R3). The test is described as above.
The target in test [14] is DIP-α K10Q G4S, extracellular region (Drosophila melanogaster). Kind of test: AUC; sedimentation equilibrium, 25 °C, 10 mM Bis-Tris pH 6.6, 150 mM NaCl, UV 280 nm, global fit (HeteroAnalysis); dimer to monomers; two runs (n 1, 2) and their average.
For test [15], the target named is DIP-α (Dpr Interacting Protein alpha), extracellular region (Drosophila melanogaster) (UniProt Q9W4R3). Kind of test: SPR; Biacore T100, CM4 chip; DIPs and DIP mutants immobilised by amine coupling, Dprs as analytes; 25 °C; 10 mM Tris-HCl pH 7.2, 150 mM NaCl, 1 mM EDTA, 1 mg/mL BSA, 0.01% Tween-20; duplicate responses fit globally to a 1:1 model; Rmax fixed for KDs > 100 μM, lower limit listed for KDs > 300 μM.

The target in test [16] is DIP-γ (Drosophila melanogaster). Kind of test: SPR; Biacore T100, CM4 chip; DIPs and DIP mutants immobilised by amine coupling (760-980 RU), Dprs and Dpr mutants as analytes (three-fold dilution series, up to 81 μM, in some cases up to 27 or 9 μM); 25 °C; 10 mM Tris-HCl pH 7.2, 150 mM NaCl, 1 mM EDTA, 1 mg/mL BSA, 0.01% Tween-20; equilibrium fit, 1:1 model; for KDs > 300 μM a lower limit is listed.

Test [17] has as its target DIP-α K10Q, extracellular region (Drosophila melanogaster). Kind of test: AUC; sedimentation equilibrium, 25 °C, 10 mM Bis-Tris pH 6.6, 150 mM NaCl, UV 280 nm, global fit (HeteroAnalysis); dimer to monomers; two runs (n 1, 2) and their average.
In test [18] the target is DIP-α K10Q {K81Q}, extracellular region (Drosophila melanogaster) (UniProt Q9W4R3). Kind of test: AUC; sedimentation equilibrium, 25 °C, 10 mM Bis-Tris pH 6.6, 150 mM NaCl, detection at 280 nm; global fit (HeteroAnalysis); dimer to monomers; mean of two independent measurements.
The target in test [19] is DIP-α (Dpr Interacting Protein alpha), extracellular region (Drosophila melanogaster) (UniProt Q9W4R3). Kind of test: SPR; Biacore T100, CM4 chip; DIPs and DIP mutants immobilised by amine coupling, Dprs as analytes; 25 °C; 10 mM Tris-HCl pH 7.2, 150 mM NaCl, 1 mM EDTA, 1 mg/mL BSA, 0.01% Tween-20; duplicate responses fit globally to a 1:1 model; Rmax fixed for KDs > 100 μM, lower limit listed for KDs > 300 μM. This is another data set of the same source.

The target in test [20] is DIP-γ (Dpr Interacting Protein gamma), extracellular region (Drosophila melanogaster) (UniProt Q9VAR6). The test is described as above.
Sequence of DIP-γ (Dpr Interacting Protein gamma), extracellular region (Drosophila melanogaster) (Q9VAR6 entry or part of it): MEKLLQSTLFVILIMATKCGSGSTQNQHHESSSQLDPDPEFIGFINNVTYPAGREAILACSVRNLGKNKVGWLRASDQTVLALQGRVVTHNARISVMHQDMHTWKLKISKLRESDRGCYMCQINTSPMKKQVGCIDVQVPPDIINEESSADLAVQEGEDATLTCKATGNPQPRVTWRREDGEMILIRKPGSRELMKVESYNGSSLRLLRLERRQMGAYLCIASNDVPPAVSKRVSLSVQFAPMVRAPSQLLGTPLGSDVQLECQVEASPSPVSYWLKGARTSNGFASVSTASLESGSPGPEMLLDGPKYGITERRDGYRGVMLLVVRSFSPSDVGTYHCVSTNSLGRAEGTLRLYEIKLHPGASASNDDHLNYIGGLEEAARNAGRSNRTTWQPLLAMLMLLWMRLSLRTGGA
The target of test [21] is DIP-α K10Q S32D {K81Q S133D}, extracellular region (Drosophila melanogaster) (UniProt Q9W4R3). Kind of test: AUC; sedimentation equilibrium, 25 °C, 10 mM Bis-Tris pH 6.6, 150 mM NaCl, detection at 280 nm; global fit (HeteroAnalysis); dimer to monomers; mean of two independent measurements.

“And” between values parts separate entries of the source, which are not always exact repeats. Identical values can stand only once. Like-named read-outs stand apart in the source and are kept apart here.

The Kd is the equilibrium constant for the complex coming apart. As for “DIP-α K10Q S32D, extracellular region (domain or fragment)”, the dissociation constant (Kd) in [1] was 60.6 µM and 68.3 µM; in test [1] (mean), 64.5 µM. Dpr6 (domain or fragment) registered a dissociation constant Kd in test [2] of 2 µM.

On to “Dpr10 V31K {V144K}, extracellular region (from UniProt M9PF17 1-362) (domain or fragment)”, for which the Kd in test [3] was found to be 52.3 µM. Usually stoichiometry N stands for a count of units in the complex or per binding partner. For “DIP-α K10Q G4S {K81Q G74S}, extracellular region (from UniProt Q9W4R3 1-554) (domain or fragment)”, in [4], the Kd came to 46.3 µM and the stoichiometry N stood at 2.

For “Dpr6 (Defective proboscis extension response 6), extracellular region (from UniProt M9PC40 1-390) (domain or fragment)”, the Kd in test [5] is 10.1 µM; in test [6] it was 0.46 µM; in test [7] it was 1.1 µM; in test [8], 23.5 µM; in test [9], 80.1 µM; in [10], 101 µM. Also, the equilibrium dissociation constant (Kd) in test [11] turned out to be 26.2 µM; in test [12], 18.4 µM; in [13], 1.05 µM.

Regarding “DIP-α K10Q G4S, extracellular region (domain or fragment)”, the equilibrium dissociation constant (Kd) in test [14] was 52 µM and 40.6 µM; in test [14] (mean), 46.3 µM.

In test [15], “Dpr10 Q26D {Q138D}, extracellular region (from UniProt M9PF17 1-362) (domain or fragment)” came in with a dissociation constant (Kd) of 19.3 µM. For Dpr11 K31V (domain or fragment), in test [16], the Kd is 22.7 µM. With “Dpr10 V31K Q29E {V144K Q142E}, extracellular region (from UniProt M9PF17 1-362) (domain or fragment)”, the Kd in [3] was determined as 71.6 µM. This counts as double-digit micromolar. For the substance “DIP-α K10Q, extracellular region (domain or fragment)”, the equilibrium dissociation constant (Kd) in [17] was 17.8 µM and 21.6 µM; in test [17] (mean) it was 19.7 µM. In the case of Dpr11 K31V,E29Q (domain or fragment), the Kd in test [16] amounted to 131 µM. With “DIP-α K10Q {K81Q}, extracellular region (from UniProt Q9W4R3 1-554) (domain or fragment)”, in test [18], the dissociation constant (Kd) was 19.7 µM and the stoichiometry N is 2. For the substance “Dpr11 K31V E29Q {K207V E205Q}, extracellular region (from UniProt Q8MRE6 1-360) (domain or fragment)”, the dissociation constant (Kd) in test [19] and in test [3] was above 300 µM each time. As to “Dpr11 K31V E29Q G10L {K207V E205Q G157L}, extracellular region (from UniProt Q8MRE6 1-360) (domain or fragment)”, the values for the Kd in test [3] and in [20] were 27.8 µM and 17.6 µM, respectively.

For the substance Dpr10 V31K (domain or fragment), in test [2], the fold increase of KD over wild-type Dpr10 is 10 fold. Dpr10 V31K Q29E (domain or fragment) came in with a fold increase of KD over the V31K single mutant in [2] of 2 fold. In test [21], “DIP-α K10Q S32D {K81Q S133D}, extracellular region (from UniProt Q9W4R3 1-554) (domain or fragment)” came in with a Kd of 64.4 µM and a stoichiometry N of 2. As to “Dpr11 K31V {K207V}, extracellular region (from UniProt Q8MRE6 1-360) (domain or fragment)”, the dissociation constant (Kd) in test [19] and in test [3] was above 300 µM in each case.
